Test results published in patent publication US20240417476A1 (ATYR PHARMA, published 2024).
Ends that are not written are not given here.

T1: NRP2b peptide (biotinylated) (human, biotin-conjugated, site not stated)
T1 construct: also called NRP2b isoform specific peptide
T1 peptide: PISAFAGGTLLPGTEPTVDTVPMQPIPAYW

T2: NRP2a_scan 1 peptide (biotinylated) (human, also: biotin-conjugated, site not given here)
T2 peptide: VDIPEIHEREGY

T3: NRP2a_scan 2 peptide (biotinylated) (human, also: biotin-conjugated, site not given here)
T3 peptide: PEIHEREGYEDE

T4: NRP2a_scan 3 peptide (biotinylated) (human, also: biotin-conjugated, site not given here)
T4 peptide: HEREGYEDEIDD

T5: NRP2a_scan 4 peptide (biotinylated) (human, also: biotin-conjugated, site not given here)
T5 peptide: EGYEDEIDDEYE

T6: NRP2a_scan 7 peptide (biotinylated) (human, also: biotin-conjugated, site not given here)
T6 peptide: EYEVDWSNSSSA

T7: NRP2a_scan 5 peptide (biotinylated) (human, also: biotin-conjugated, site not given here)
T7 peptide: EDEIDDEYEVDW

T8: NRP2a_scan 6 peptide (biotinylated) (human, also: biotin-conjugated, site not given here)
T8 peptide: IDDEYEVDWSNS

T9: Mid-NRP2A peptide (biotinylated) (human, biotin-conjugated, site not stated)
T9 peptide: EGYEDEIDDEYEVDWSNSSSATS

T10: human NRP2b expressed on Expi293F cells (human)
T10 construct: also called full length NRP2b
T10 chain: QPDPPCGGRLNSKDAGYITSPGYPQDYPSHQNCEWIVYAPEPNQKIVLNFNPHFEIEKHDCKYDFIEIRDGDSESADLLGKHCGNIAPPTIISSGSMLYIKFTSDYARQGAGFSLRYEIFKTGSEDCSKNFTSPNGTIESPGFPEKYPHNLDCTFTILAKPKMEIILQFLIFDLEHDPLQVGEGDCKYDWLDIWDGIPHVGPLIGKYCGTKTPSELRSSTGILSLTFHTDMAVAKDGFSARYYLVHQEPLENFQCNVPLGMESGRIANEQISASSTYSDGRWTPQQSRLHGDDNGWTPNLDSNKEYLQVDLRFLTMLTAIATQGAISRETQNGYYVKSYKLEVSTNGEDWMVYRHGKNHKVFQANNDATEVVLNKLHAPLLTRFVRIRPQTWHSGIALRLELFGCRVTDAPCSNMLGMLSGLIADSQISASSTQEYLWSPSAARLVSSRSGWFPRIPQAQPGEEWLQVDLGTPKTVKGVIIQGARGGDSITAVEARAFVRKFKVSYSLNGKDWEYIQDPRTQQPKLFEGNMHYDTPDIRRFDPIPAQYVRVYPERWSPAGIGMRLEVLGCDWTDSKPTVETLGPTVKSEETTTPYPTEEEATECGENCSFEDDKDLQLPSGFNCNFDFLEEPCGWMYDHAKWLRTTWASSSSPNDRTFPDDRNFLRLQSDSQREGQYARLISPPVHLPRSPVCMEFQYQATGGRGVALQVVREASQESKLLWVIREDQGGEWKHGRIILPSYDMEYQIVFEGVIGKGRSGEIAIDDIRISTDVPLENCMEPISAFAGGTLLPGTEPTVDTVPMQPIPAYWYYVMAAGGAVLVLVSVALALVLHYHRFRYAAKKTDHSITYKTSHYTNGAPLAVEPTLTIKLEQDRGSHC

T11: NRP2v3
T11 construct: not the NanoLuc-tagged construct m33; also called human NRP2 v3 expressed on Expi293F cells; NRP2a v3
T11 chain: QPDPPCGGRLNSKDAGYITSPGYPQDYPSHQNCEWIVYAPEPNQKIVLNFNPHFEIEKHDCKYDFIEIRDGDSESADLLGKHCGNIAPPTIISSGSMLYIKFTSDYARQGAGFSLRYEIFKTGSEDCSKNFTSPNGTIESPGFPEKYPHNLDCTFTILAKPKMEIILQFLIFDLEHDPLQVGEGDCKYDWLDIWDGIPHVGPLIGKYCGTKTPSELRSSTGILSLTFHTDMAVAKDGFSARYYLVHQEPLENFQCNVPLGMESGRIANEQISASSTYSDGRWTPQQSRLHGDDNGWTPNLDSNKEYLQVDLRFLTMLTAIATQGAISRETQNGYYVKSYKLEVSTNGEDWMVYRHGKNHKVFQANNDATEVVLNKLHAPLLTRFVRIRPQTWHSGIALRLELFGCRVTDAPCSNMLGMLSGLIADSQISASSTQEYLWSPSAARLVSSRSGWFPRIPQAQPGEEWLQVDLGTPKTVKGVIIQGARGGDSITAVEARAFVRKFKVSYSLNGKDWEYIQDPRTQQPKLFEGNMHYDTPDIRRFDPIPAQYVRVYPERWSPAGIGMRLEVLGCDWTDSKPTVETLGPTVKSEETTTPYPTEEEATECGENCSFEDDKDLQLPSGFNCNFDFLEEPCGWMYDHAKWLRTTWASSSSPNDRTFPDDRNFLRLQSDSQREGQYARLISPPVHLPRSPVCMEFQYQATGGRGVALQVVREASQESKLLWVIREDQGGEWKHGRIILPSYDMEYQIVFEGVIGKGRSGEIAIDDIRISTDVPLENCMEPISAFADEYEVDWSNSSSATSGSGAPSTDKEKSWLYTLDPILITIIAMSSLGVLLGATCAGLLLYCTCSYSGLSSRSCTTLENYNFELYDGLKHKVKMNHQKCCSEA

T12: Mid-mNRP2A peptide (biotinylated) (mouse, biotin-conjugated, site not stated)
T12 peptide: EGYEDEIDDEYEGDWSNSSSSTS


What was measured:
[1] = biological target: T1, NRP2b peptide (biotinylated); assay: peptide ELISA
[2] = biological target: Short NRP2A peptide (biotinylated) (human, biotin-conjugated, site not stated); assay: BLI, peptide on sensor;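 also: octet RED96e biolayer interferometry with biotin-conjugated NRP2 peptides spanning isoform-specific regions (human and mouse) loaded on biosensors, antibodies applied at 50 nM, association read over 300 s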
[3] = biological target: T2, NRP2a_scan 1 peptide (biotinylated); assay: BLI, peptide on sensor;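 also: octet RED96e biolayer interferometry with biotin-conjugated NRP2 peptides spanning isoform-specific regions (human and mouse) loaded on biosensors, antibodies applied at 50 nM, association read over 300 s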
Experimental: (§1) Biolayer interferometry (BLI) experiments were carried out on an Octet RED96e instrument (Sartorius) to further characterize antibody affinities to the NRP2 peptides screened above. Antibodies were epitope mapped using peptides that span the NRP2a isoform specific region; antibodies were also tested for reactivity to an NRP2b isoform specific peptide and cross-reactivity to mNRP2a and mNRP2b peptides (see Table E2 for peptide sequences).
(§2) Antibodies and peptides were diluted in 1×PBS, 0.1% BSA, 0.02% Tween 20, pH 7.4. […] The biosensors were then dipped into 50 nM solutions of each antibody and read for 300s. The biosensors were regenerated in 10 mM glycine, pH 1.5 in between cycles of different antibodies.

[4] = biological target: T3, NRP2a_scan 2 peptide (biotinylated); assay: BLI, peptide on sensor;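 also: octet RED96e biolayer interferometry with biotin-conjugated NRP2 peptides spanning isoform-specific regions (human and mouse) loaded on biosensors, antibodies applied at 50 nM, association read over 300 s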
Experimental: as §1, §2

[5] = biological target: T4, NRP2a_scan 3 peptide (biotinylated); assay: BLI, peptide on sensor;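 also: octet RED96e biolayer interferometry with biotin-conjugated NRP2 peptides spanning isoform-specific regions (human and mouse) loaded on biosensors, antibodies applied at 50 nM, association read over 300 s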
Experimental: as §1, §2

[6] = biological target: T5, NRP2a_scan 4 peptide (biotinylated); assay: BLI, peptide on sensor
Experimental: as §1, §2

[7] = biological target: T6, NRP2a_scan 7 peptide (biotinylated); assay: BLI, peptide on sensor
Experimental: as §1, §2

[8] = biological target: T7, NRP2a_scan 5 peptide (biotinylated); assay: BLI, peptide on sensor, 50 nM antibody
[9] = biological target: T8, NRP2a_scan 6 peptide (biotinylated); assay: BLI, peptide on sensor, 50 nM antibody
[10] = biological target: T9, Mid-NRP2A peptide (biotinylated); assay: BLI, peptide on sensor, 50 nM antibody
[11] = biological target: T13, mNRP2A peptide (biotinylated) (mouse, biotin-conjugated, site not stated); assay: BLI, peptide on sensor, 50 nM antibody
T13 construct: also called mouse NRP2 isoform a peptide

[12] = biological target: T14, NRP2A peptide (biotinylated) (human, biotin-conjugated, site not stated); assay: BLI, isoform peptide on sensor, 50 nM antibody
T14 construct: also called NPR2A; NRP2a specific peptide

[13] = biological target: T15, Human NRP2a v2 (926aa) in pBiT2.1-C with C-terminal split NanoLuc tag, expressed in Expi293 cells (human, UniProt O60462 23-931); assay: CCL21-induced NRP2a/CCR7 receptor dimerization (NanoBiT, Example 7); mark beside the epitope box
T15 construct: cDNA Origene RCC220706, isoform 2; also called pBiT2.1-C-NRP2v2 (isoform 2); NRP2 v2; not shown: vector-encoded spacer and small split NanoLuc fragment (pBiT2.1-C)

[14] = biological target: T10, human NRP2b expressed on Expi293F cells; assay: flow cytometry, Expi293F cells transfected with the target, fluorescent anti-mouse secondary; MFI signal relative to mock-transfected cells
Experimental: (§3) Signal to noise was calculated as the staining intensity of transfected cells compared to an un-transfected ‘mock’ population.

[15] = biological target: T11, NRP2v3; assay: as above
Experimental: as §3

[16] = biological target: T1, NRP2b peptide (biotinylated); assay: BLI, peptide on sensor
[17] = biological target: T7, NRP2a_scan 5 peptide (biotinylated); assay: BLI, peptide on sensor
Experimental: as §1, §2

[18] = biological target: T8, NRP2a_scan 6 peptide (biotinylated); assay: BLI, peptide on sensor
Experimental: as §1, §2

[19] = biological target: T9, Mid-NRP2A peptide (biotinylated); assay: BLI, peptide on sensor
Experimental: as §1, §2

[20] = biological target: T16, mNRP2b peptide (biotinylated) (mouse, biotin-conjugated, site not stated); assay: BLI, peptide on sensor
[21] = biological target: T17, human NRP2a v2 expressed on Expi293F cells (human, UniProt O60462 23-931); assay: flow cytometry, Expi293F cells transfected with the target, fluorescent anti-mouse secondary; MFI signal relative to mock-transfected cells
T17 construct: cDNA Origene RCC220706; also called NRP2 v2
Experimental: as §3

[22] = biological target: T12, Mid-mNRP2A peptide (biotinylated); assay: BLI, peptide on sensor
Experimental: as §1, §2

[23] = biological target: T16, mNRP2b peptide (biotinylated); assay: BLI, peptide on sensor, 50 nM antibody

T16 sequence (peptide, as listed by the source): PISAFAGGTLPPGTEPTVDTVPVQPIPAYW

Row | Binder | binding result [2] | binding result [3] | binding result [4] | binding result [5] | binding result [6] | binding result [7] | binding result [11] | binding result [12] | binding result [14] | binding result [15] | binding result [17] | binding result [18] | binding result [19] | binding result [21] | binding result [22] | binding result [23] | further results
1 | aNRP2-37v2 (antibody, V domains shown, Mouse monoclonal (captured by anti-murine kappa, detected with anti-mouse IgG)) VH: DVKLVESGEGLVKPGGSLKLSCAASGFTFSDYALSWVRQTPEKRLEWVAYISSGGDYIYYADTVRGRFTISRDNARNTLYLQMSSLQSEDTAIYYCTRGGQDDYWGQGTTLTVSS VL: DVVMTQTPLSLPVILGDQASISCRSSQSLVHSNGNTYLQWYLQKPGQSPKLLIYKVSNRFSGVPDRFSGSGSGTDFTLKISRVEAEDLGVYFCSQSTHVPFTFGSGTNLEIK | no binding (tested: 50 nM) | no binding (tested: 50 nM) | no binding (tested: 50 nM) | no binding (tested: 50 nM) | no binding (tested: 50 nM) | no binding (tested: 50 nM) | – | binds | no binding | no binding | no binding (tested: 50 nM) | no binding (tested: 50 nM) | no binding (tested: 50 nM) | binds | – | – | binding result [16]: no binding (tested: 50 nM); binding result [20]: no binding (tested: 50 nM)
2 | aNRP2-406v2 (antibody, V domains shown, Mouse monoclonal) VH: EVQLQQSGPELVKPGASVKISCKASGYSFTGYFMNWVKQSHGKSLEWIGRINPYNGDTFYNQKFKGKATLTVDKSSSTAHMALLSLTSEDSAVYYCGREVAEVPFDYWGQGTTLTVSS VL: not shown | no binding (tested: 50 nM) | no binding (tested: 50 nM) | no binding (tested: 50 nM) | no binding (tested: 50 nM) | no binding (tested: 50 nM) | no binding (tested: 50 nM) | binds | binds | – | binds | no binding (tested: 50 nM) | no binding (tested: 50 nM) | no binding (tested: 50 nM) | binds | no binding (tested: 50 nM) | binds | –

Continued, in another order:

Row | binding result [2] | binding result [3] | binding result [4] | binding result [5] | binding result [6] | binding result [7] | binding result [11] | binding result [12] | binding result [14] | binding result [15] | binding result [17] | binding result [18] | binding result [19] | binding result [21] | binding result [22] | binding result [23] | Binder | further results
3 | no binding (tested: 50 nM) | no binding (tested: 50 nM) | no binding (tested: 50 nM) | no binding (tested: 50 nM) | no binding (tested: 50 nM) | no binding (tested: 50 nM) | binds | binds | no binding | binds | – | – | – | – | – | – | aNRP2-402v2 (antibody, V domains shown, Mouse monoclonal) VH: EVQLVESGGDLVKPGGSLKLSCAASGFTFSNYAMSWVRQTPEKRLEWVASISDGGSYTYYPDNVKGRFTISRDSAKKSLYLQMSHLKSEDTAMYYCTKDGGPREGYFDVWGTGTTVTVSS VL: DVLMTQTPLSLPVSLGDQASISCRSSQSIVHSNGNTYLEWYLQKPGQSPKLLIYKVSNRFSGVPDRFSGSGSGTDFTLKISRVEAEDLGVYYCFQGSHVPYTFGGGTKLEIK | binding result [1]: no binding (tested: <3x blank); binding result [8]: binds; binding result [9]: binds; binding result [10]: binds; blocks receptor dimerization [13]: < 50%
4 | no binding (tested: 50 nM) | no binding (tested: 50 nM) | no binding (tested: 50 nM) | no binding (tested: 50 nM) | no binding (tested: 50 nM) | no binding (tested: 50 nM) | binds | binds | – | binds | no binding (tested: 50 nM) | no binding (tested: 50 nM) | no binding (tested: 50 nM) | binds | no binding (tested: 50 nM) | binds | aNRP2-407v2 (antibody, V domains shown, Mouse monoclonal) VH: EVQLQQSGPELVKPGASVTISCKASGYSFTGYYMHWVKQSHVKSLEWIGRINPYNGATSYSQNFKDKASLTIDKSSSTAYMELHSLTSEDSAVYYCAREETTAPFTYWGQGTLVTVSA VL: DIVMSQSPSSLAVSVGEKVTMSCKSSQSLLYSSNQKNYLAWYQQKPGQSPKLLIYWASTRESGVPDRFTGSGSGTDFTLTISSVQAEDLAVYFCQHYYSYPPTFGGGTKLEIK | –
